# Experimental data as given in patent US20210188958A1 (JILIN UNIVERSITY, published 2021).
# Key:
# Assay in all cases: indirect ELISA, peptide coated at 0.25 ug/well
# [1] = target: T1, synthetic peptide W4 (Trichinella spiralis)
# T1 construct: also called Ts-WN10-W4
# T1 peptide: TVSKCFEEVEEPLII
# [2] = target: T2, synthetic peptide W5 (Trichinella spiralis)
# T2 construct: also called Ts-WN10-W5
# T2 peptide: QILGETTHYGRNDP
# [3] = target: T3, synthetic peptide W6 (Trichinella spiralis)
# T3 construct: also called Ts-WN10-W6
# T3 peptide: ALFSSDSKEQSGVLH
# [4] = target: T4, synthetic peptide W7 (Trichinella spiralis)
# T4 construct: also called Ts-WN10-W7
# T4 peptide: HKLVELEESSTMGIL
# [5] = target: T5, synthetic peptide W8 (Trichinella spiralis)
# T5 construct: also called Ts-WN10-W8
# T5 peptide: CTLEYRHRTPSTATV
# [6] = target: T6, synthetic peptide W9 (Trichinella spiralis)
# T6 construct: also called Ts-WN10-W9
# T6 peptide: EEQVVSQRSQMLGGT
# [7] = target: T7, synthetic peptide W10 (Trichinella spiralis)
# T7 construct: also called Ts-WN10-W10
# T7 peptide: IFESDKKKSSGTYLL
# [8] = target: T8, synthetic peptide W11 (Trichinella spiralis)
# T8 construct: also called Ts-WN10-W11
# T8 peptide: KETECGIKEKAFNSY
# [9] = target: T9, synthetic peptide W12 (Trichinella spiralis)
# T9 construct: also called Ts-WN10-W12
# T9 peptide: EKAFNSYEDVYKNCS
# [10] = target: T10, synthetic peptide W13 (Trichinella spiralis)
# T10 construct: also called Ts-WN10-W13
# T10 peptide: DVYKNCSGSGDSKVC
# [11] = target: T11, synthetic peptide W14 (Trichinella spiralis)
# T11 construct: also called Ts-WN10-W14
# T11 peptide: VEYKYFDPTKSTVEC
# [12] = target: T12, synthetic peptide W1 (Trichinella spiralis)
# T12 construct: also called Ts-WN10-W1
# T12 peptide: ALFSSDLKQESGVFH
# [13] = target: T13, synthetic peptide W2 (Trichinella spiralis)
# T13 construct: also called Ts-WN10-W2
# T13 peptide: VNCQGEGRRKHCTME
# [14] = target: T14, synthetic peptide W3 (Trichinella spiralis)
# T14 construct: also called Ts-WN10-W3
# T14 peptide: TMEYTHRNPSKATVS
binder,measurement,setting,value
"WN10-1H9-Ab (antibody, V domains shown, Mouse monoclonal antibody; It was used as hybridoma supernatant in the ELISAs; also called 1H9 monoclonal antibody; monoclonal antibody generated by hybridoma cell line WN10-1H9 (CGMCC No. 18316)) VH: QVQLQQPGSELVRPGASVKLSCKASGYTFTSYWMHWVKQRPGQGLEWIGNISPGSGNTNYDEKFKTKATLTVDTSSSTAYMQLSSLTSEDSAVYYCTRHGTVDYWGQGTTVTVSS VL: not shown",OD 450 nm,[1],0.171 OD 450 nm
same,OD 450 nm,[2],0.286 OD 450 nm
same,OD 450 nm,[3],0.127 OD 450 nm
same,OD 450 nm,[4],0.162 OD 450 nm
same,OD 450 nm,[5],0.152 OD 450 nm
same,OD 450 nm,[6],0.144 OD 450 nm
same,OD 450 nm,[7],0.161 OD 450 nm
same,OD 450 nm,[8],0.147 OD 450 nm
same,OD 450 nm,[9],0.16 OD 450 nm
same,OD 450 nm,[10],0.166 OD 450 nm
same,OD 450 nm,[11],0.158 OD 450 nm
same,OD 450 nm,[12],0.0733 OD 450 nm
same,OD 450 nm,[13],1.15 OD 450 nm
same,OD 450 nm,[14],0.149 OD 450 nm
